Numbering of substitutions follows the chain as printed.
B1: Antibody 26 (IgG) (antibody, V domains shown)
VH: EVQLLESGGGLVQPGGSLRLSCAASGLTFSGYAMSWVRQAPGKGLEWVSAISGSGGRTYYADSVKGRFTISRDNSKNMLYLQMNSLRAEDTAVYYCARHIAVAGTRGFDYWGRGTLVTVSS
VL: SFVLTQPPSVSVSPGQTASITCSGDKLGDTYASWYRQRSGQSPVLVIYQDDKRPSGIPERFSGSNSGNTATLTIGGTHTMDEADYYCLAWDTRTSGAVFGGGTKLTVL
B2: Antibody 9 (IgG) (antibody, V domains shown)
VH: EVQLLESGGGLVQPGGSLRLSCAASGFTFSSYAMSWVRQAPGKGLEWVSAISGGSGGRTYYADSVKGRFTISRDNSKNTLYLQMNSLRAEDTAVYYCARHIAVAGTRGFDYWGRGTLVTVSS
VL: B1 VL with T5S, G75S
B3: Antibody 1 (IgG) (antibody, V domains shown)
VH: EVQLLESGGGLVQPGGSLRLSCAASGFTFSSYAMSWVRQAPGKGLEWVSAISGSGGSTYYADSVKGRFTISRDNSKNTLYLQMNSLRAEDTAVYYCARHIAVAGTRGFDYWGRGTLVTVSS
VL: B1 VL with F2Y, T30K, G75S
notes: also called parent antibody
B4: Antibody 34 (IgG) (antibody, V domains shown)
VH: B2 VH with S25P, F29L
VL: B1 VL with F2Y, V12A, S55P, G75R, T106S
B5: Antibody 33 (IgG) (antibody, V domains shown)
VH: B2 VH with R19S, S25P, R73K
VL: B1 VL with F2Y, Q41L, V44A, G75S
B6: Antibody 33GL (germlined IgG) (antibody, V domains shown)
VH: B2 VH with R19S, S25P, R73K
VL: B1 VL with F2Y, V3E, R36Q, R38K, S39P, Q41L, V44A, G75S, H78Q, T79A
notes: germlined IgG; also called Antibody 35 (provisional application)
B7: Antibody 15 (IgG) (antibody, V domains shown)
VH: B2 VH with S25P
VL: B1 VL with F2Y, K52R, G75S

Tests used:
[1] = target: human IgEλ (U266 derived) (human, UniProt P01854 1-546); test: cell-based or functional assay
[2] = target: T1, cynomolgus IgE (recombinant chimaeric D12 variable region / cynomolgus IgE constant region) (cynomolgus monkey (constant region)); test: cell-based or functional assay
[3] = target: T2, human IgE (source not stated for the assay) (human, UniProt P01854-1 1-428); test: SPR, BIAcore 2000; IgE amine-coupled to CM5 chip, IgG as analyte, bivalent analyte model; geomean
T2 construct: also called purified human IgE; IgE (Calbiochem or U266-derived)
Protocol: (§1) The binding affinity of purified IgG samples of a representative number of clones to human and cynomolgus IgE was determined by surface plasmon resonance using BIAcore 2000 biosensor (BIAcore AB) essentially as described by Karlsson et al 1991; Journal of Immunological Methods 145 (1-2) 229-240. In brief, purified human or cynomolgus IgE was covalently coupled to the surface of a CM5 sensor chip (BIAcore) using standard amine coupling reagents according to the manufacturer's instructions to provide a surface density of 100 RU. IgG samples prepared in HBS-EP buffer (BIAcore (AB), at a range of concentrations, between 250 nM and 15.6 nM were passed over the sensor chip surface. The surface was regenerated using 10 mM Glycine, pH 1.75 between each injection of antibody. The resulting sensorgrams were evaluated using BIA evaluation 3.1 software and fitted to a bivalent analyte model, to provide relative binding data.

[4] = target: T3, Cynomolgus Cε3-4 FLAG His10 (cynomolgus monkey); test: DELFIA epitope competition; competitor vs biotinylated human IgE on immobilised IgG
T3 construct: also called cynomolgus IgE Cε3-Cε4 domain (in house HEK-EBNA derived)
T3 chain: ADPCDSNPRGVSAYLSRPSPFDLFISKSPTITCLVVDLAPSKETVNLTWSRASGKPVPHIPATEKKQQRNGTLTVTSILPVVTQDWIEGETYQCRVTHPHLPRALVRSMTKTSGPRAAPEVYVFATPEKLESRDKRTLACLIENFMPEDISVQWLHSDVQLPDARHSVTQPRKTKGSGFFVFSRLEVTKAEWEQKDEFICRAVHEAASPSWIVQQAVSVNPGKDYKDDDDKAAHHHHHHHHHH
Protocol: (§2) Purified IgG were adsorbed onto 96-well Maxisorp microtitre plates (Nunc) in PBS at a concentration which gave a significant signal when biotinylated human IgE was added at approximately its estimated KD for that particular IgG. Excess IgG was washed away with PBS-Tween (0.1% v/v) and the wells were blocked with PBS-Marvel (3% w/v) for 1 h. […] To this series, an equal volume of biotinylated human IgE at a concentration of approximately the KD was added (resulting in a series starting at a ratio of competitor antigen:biotinylated human IgE of approximately 1000:1). These mixtures were then transferred onto the blocked IgG and allowed to equilibrate for 1 h. Unbound antigen was removed by washing with PBS-Tween (0.1% v/v), while the remaining biotinylated human IgE was detected by streptavidin-Europium3+ conjugate (DELFIA® detection, PerkinElmer). Time-resolved fluorescence was measured at 620 nm on an EnVision plate reader (PerkinElmer). Fluorescence data were analysed using either Graphpad Prism or Microsoft Excel software.

[5] = target: T4, human IgE Cε3-Cε4 domain, C-terminally tagged with FLAG His10 (human, UniProt P01854-1 209-428, limits assumed); test: as above
T4 construct: domain: Cε3-Cε4; secreted with murine IgG1 leader from HEK293-EBNA cells; also called human IgE Ce3-4; human IgE Cε3-Cε4 domain (in house HEK-EBNA derived)
Protocol: as §2

[6] = target: T2, human IgE (source not stated for the …); test: cell-based or functional assay
[7] = target: T5, human IgEλ (U266 derived) (human, UniProt P01854 1-546); test: cell-based or functional assay; remark: listed apart in the source
[8] = target: T1, cynomolgus IgE (recombinant chimaeric …); test: SPR, BIAcore 2000; cynomolgus IgE amine-coupled to CM5 chip, IgG as analyte, bivalent analyte model; geomean
Protocol: as §1

[9] = target: T5, human IgEλ (U266 derived); test: flow cytometry competition; IgG titrated, mixed with IgE (U266, 10 µg/mL), IgE binding to CD23 on IL-4 treated IM9 cells
Protocol: Some of these optimised antibodies were evaluated for inhibition of the IgE/CD23 interaction using the IM9 binding assay as previously described.
Antibody dilutions (667 nM to 1 nM) were prepared in U-bottomed polypropylene plates (Greiner) and mixed with IgE (U266-derived [Ikeyama et. al. 1986. Molecular Immunology 23 (2); p159-167]) to a final IgE concentration of 10 μg/mL for 30 minutes at room temperature. Cell plates were spun at 2000 rpm for 2 minutes and supernatant was aspirated, leaving the cell pellet intact. Cells were resuspended in 100 μL/well antibody/IgE mix and incubated on ice for 1 hour. Cell plates were centrifuged at 2000 rpm for 2 minutes and antibody/IgE supernatants were aspirated. Cells were washed by resuspending in 200 μL/well of Flow buffer and centrifuging as above.
IgE bound to the cell surface was detected with anti-IgE-phycoerythin (Caltag) diluted 1/30, v/v, 100 μL/well. Assay plates were incubated on ice for 20 minutes in the dark before centrifuging at 2000 rpm for 2 minutes and washing with 2×200 μL of Flow buffer as described above. Cells were resuspended in 100 μL Cell Fix (BD biosciences) and analysed using a FACSCalibur (BD Biosciences) to detect FL2 staining.

[10] = target: T5, human IgEλ (U266 derived); test: cell-based or functional assay; remark: listed apart in the source

T2 sequence (P01854 other isoform, or with tags, fused parts or gaps): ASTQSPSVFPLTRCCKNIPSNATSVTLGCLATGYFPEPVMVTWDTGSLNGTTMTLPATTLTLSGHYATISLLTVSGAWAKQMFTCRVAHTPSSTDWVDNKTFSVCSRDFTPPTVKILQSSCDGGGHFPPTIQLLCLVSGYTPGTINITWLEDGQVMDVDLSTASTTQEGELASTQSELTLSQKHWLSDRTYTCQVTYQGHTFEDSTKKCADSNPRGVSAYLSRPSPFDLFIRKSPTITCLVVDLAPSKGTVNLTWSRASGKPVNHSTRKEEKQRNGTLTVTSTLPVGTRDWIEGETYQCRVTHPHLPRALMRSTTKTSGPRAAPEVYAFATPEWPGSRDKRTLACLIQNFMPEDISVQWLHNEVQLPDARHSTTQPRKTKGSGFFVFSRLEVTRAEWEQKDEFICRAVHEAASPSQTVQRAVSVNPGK
T1 sequence (heavy, as listed by the source limits assumed, chain 1 of 2): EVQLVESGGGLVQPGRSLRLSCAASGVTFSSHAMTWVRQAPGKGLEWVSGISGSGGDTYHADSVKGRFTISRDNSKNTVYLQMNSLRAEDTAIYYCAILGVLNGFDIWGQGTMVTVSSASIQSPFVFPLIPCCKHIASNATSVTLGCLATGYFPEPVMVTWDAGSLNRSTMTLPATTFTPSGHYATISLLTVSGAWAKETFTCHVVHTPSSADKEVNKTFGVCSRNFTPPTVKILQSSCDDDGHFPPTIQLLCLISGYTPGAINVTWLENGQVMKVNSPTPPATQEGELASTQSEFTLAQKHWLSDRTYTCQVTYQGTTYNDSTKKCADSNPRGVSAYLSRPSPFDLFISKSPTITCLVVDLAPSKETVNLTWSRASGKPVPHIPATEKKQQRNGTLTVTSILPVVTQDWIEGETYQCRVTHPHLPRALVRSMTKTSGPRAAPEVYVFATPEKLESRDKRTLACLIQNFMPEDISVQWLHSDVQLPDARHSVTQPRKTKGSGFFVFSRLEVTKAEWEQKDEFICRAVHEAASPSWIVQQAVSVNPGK
T1 sequence (light, as listed by the source limits assumed, chain 2 of 2): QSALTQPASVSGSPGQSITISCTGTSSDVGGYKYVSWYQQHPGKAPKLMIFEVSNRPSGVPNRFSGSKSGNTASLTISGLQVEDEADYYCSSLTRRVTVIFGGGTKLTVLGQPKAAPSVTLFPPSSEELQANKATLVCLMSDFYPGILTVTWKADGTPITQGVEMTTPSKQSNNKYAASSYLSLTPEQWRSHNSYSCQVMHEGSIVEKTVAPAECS
T4 sequence (P01854 other isoform, or with tags, fused parts or gaps limits assumed): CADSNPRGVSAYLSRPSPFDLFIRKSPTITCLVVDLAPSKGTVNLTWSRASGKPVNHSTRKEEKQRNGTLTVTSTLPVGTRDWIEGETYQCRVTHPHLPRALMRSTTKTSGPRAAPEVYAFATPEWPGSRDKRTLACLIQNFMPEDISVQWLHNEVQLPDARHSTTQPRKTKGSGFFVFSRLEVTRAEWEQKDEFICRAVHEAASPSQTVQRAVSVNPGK

| Binder | RBL-ER51 calcium signalling IC50 (nM) Geomean, human IgE 25 ng/ml [1] [nM] | RBL-ER51 calcium signalling IC50 (nM) Geomean, cynomolgus IgE 100 ng/ml [2] [nM] | Kd [3] [nM] | other results |
| --- | --- | --- | --- | --- |
| B1 | 1.2 | 17 |  |  |
| B2 | 0.286 | 4.5 | 79 |  |
| B3 |  |  |  | binding result [4]: no binding; binding result [5]: no binding; RBL-ER51 calcium signalling IC50 [6]: 267 nM |
| B4 | 0.223 | 22 | 26 |  |
| B5 |  | 5.1 | 0.8 | RBL-ER51 calcium signalling IC50 (nM) Geomean, human IgE 25 ng/ml [7]: 0.112 nM; Kd [8]: 2.3 nM; IC50 [9]: 83 nM |
| B6 |  |  | 0.142 | RBL-ER51 calcium signalling IC50 (nM) Human IgE Geomean [10]: 0.197 nM; binding result [4]: no binding; binding result [5]: no binding |
| B7 | 0.341 | 5.4 | 0.9 | Kd [8]: 7 nM |
